# Reference: patent publication US20260167699A1 (Chugai, published 2026)
# Target: T1, FcγRIIIa (human, UniProt P08637 17-208)
# T1 construct: extracellular domain; also called 3a; FcγRIIIa extracellular domain
# Experiment: SPR (Biacore);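 further: antibody variants captured on an SPR sensor chip, with FcγRIIIa passed over as analyte in HBS-EP+ buffer at 25 °C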
# T1 sequence (P08637 other isoform, or with tags, fused parts or gaps): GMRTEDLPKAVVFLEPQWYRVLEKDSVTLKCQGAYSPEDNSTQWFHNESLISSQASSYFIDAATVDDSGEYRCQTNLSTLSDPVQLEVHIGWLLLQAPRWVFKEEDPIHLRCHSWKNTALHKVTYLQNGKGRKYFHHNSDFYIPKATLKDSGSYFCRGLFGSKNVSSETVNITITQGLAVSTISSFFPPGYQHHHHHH
row,Binder,He/Con 3a
1,"GpH7-A5/GpH7-B3 variant P331_06M/GpL16-k0 (antibody, human IgG1, kappa, copies: 1 + 1 + 2) heavy 1: not shown heavy 2: not shown light: DIVMTQSPLSLPVTPGEPASISCQASESLVHSNRNTYLHWYLQKPGQSPQLLIYKVSNRFSGVPDRFSGSGSGTDFTLKISRVEAEDVGVYYCSQNTHVPPTFGQGTKVEIERTVAAPSVFIFPPSDEQLKSGTASVVCLLNNFYPREAKVQWKVDNALQSGNSQESVTEQDSKDSTYSLSSTLTLSKADYEKHKVYACEVTHQGLSSPVTKSFNRGEC",68.4 % of GpH7-A5/GpH7-B3/GpL16-k0
2,"GpH7-A5/GpH7-B3 variant P331_07I/GpL16-k0 (antibody, human IgG1, kappa, copies: 1 + 1 + 2) heavy 1: not shown heavy 2: not shown light: DIVMTQSPLSLPVTPGEPASISCQASESLVHSNRNTYLHWYLQKPGQSPQLLIYKVSNRFSGVPDRFSGSGSGTDFTLKISRVEAEDVGVYYCSQNTHVPPTFGQGTKVEIERTVAAPSVFIFPPSDEQLKSGTASVVCLLNNFYPREAKVQWKVDNALQSGNSQESVTEQDSKDSTYSLSSTLTLSKADYEKHKVYACEVTHQGLSSPVTKSFNRGEC",60.4 % of GpH7-A5/GpH7-B3/GpL16-k0
3,"GpH7-A5/GpH7-B3 variant P331_03V/GpL16-k0 (antibody, human IgG1, kappa, copies: 1 + 1 + 2) heavy 1: not shown heavy 2: not shown light: DIVMTQSPLSLPVTPGEPASISCQASESLVHSNRNTYLHWYLQKPGQSPQLLIYKVSNRFSGVPDRFSGSGSGTDFTLKISRVEAEDVGVYYCSQNTHVPPTFGQGTKVEIERTVAAPSVFIFPPSDEQLKSGTASVVCLLNNFYPREAKVQWKVDNALQSGNSQESVTEQDSKDSTYSLSSTLTLSKADYEKHKVYACEVTHQGLSSPVTKSFNRGEC",66.9 % of GpH7-A5/GpH7-B3/GpL16-k0
4,"GpH7-A5/GpH7-B3 variant P329_10E/GpL16-k0 (antibody, human IgG1, kappa, copies: 1 + 1 + 2) heavy 1: not shown heavy 2: not shown light: DIVMTQSPLSLPVTPGEPASISCQASESLVHSNRNTYLHWYLQKPGQSPQLLIYKVSNRFSGVPDRFSGSGSGTDFTLKISRVEAEDVGVYYCSQNTHVPPTFGQGTKVEIERTVAAPSVFIFPPSDEQLKSGTASVVCLLNNFYPREAKVQWKVDNALQSGNSQESVTEQDSKDSTYSLSSTLTLSKADYEKHKVYACEVTHQGLSSPVTKSFNRGEC",52.7 % of GpH7-A5/GpH7-B3/GpL16-k0
5,"GpH7-A5/GpH7-B3 variant P331_08L/GpL16-k0 (antibody, human IgG1, kappa, copies: 1 + 1 + 2) heavy 1: not shown heavy 2: not shown light: DIVMTQSPLSLPVTPGEPASISCQASESLVHSNRNTYLHWYLQKPGQSPQLLIYKVSNRFSGVPDRFSGSGSGTDFTLKISRVEAEDVGVYYCSQNTHVPPTFGQGTKVEIERTVAAPSVFIFPPSDEQLKSGTASVVCLLNNFYPREAKVQWKVDNALQSGNSQESVTEQDSKDSTYSLSSTLTLSKADYEKHKVYACEVTHQGLSSPVTKSFNRGEC",66 % of GpH7-A5/GpH7-B3/GpL16-k0
6,"GpH7-A5/GpH7-B3 variant P331_10E/GpL16-k0 (antibody, human IgG1, kappa, copies: 1 + 1 + 2) heavy 1: not shown heavy 2: not shown light: DIVMTQSPLSLPVTPGEPASISCQASESLVHSNRNTYLHWYLQKPGQSPQLLIYKVSNRFSGVPDRFSGSGSGTDFTLKISRVEAEDVGVYYCSQNTHVPPTFGQGTKVEIERTVAAPSVFIFPPSDEQLKSGTASVVCLLNNFYPREAKVQWKVDNALQSGNSQESVTEQDSKDSTYSLSSTLTLSKADYEKHKVYACEVTHQGLSSPVTKSFNRGEC",68.7 % of GpH7-A5/GpH7-B3/GpL16-k0

# Continued, values first:
row,He/Con 3a,Binder
1,61.8 % of GpH7-A5/GpH7-B3/GpL16-k0,"GpH7-A5/GpH7-B3 variant P331_11K/GpL16-k0 (antibody, human IgG1, kappa, copies: 1 + 1 + 2) heavy 1: not shown heavy 2: not shown light: DIVMTQSPLSLPVTPGEPASISCQASESLVHSNRNTYLHWYLQKPGQSPQLLIYKVSNRFSGVPDRFSGSGSGTDFTLKISRVEAEDVGVYYCSQNTHVPPTFGQGTKVEIERTVAAPSVFIFPPSDEQLKSGTASVVCLLNNFYPREAKVQWKVDNALQSGNSQESVTEQDSKDSTYSLSSTLTLSKADYEKHKVYACEVTHQGLSSPVTKSFNRGEC"
2,67.8 % of GpH7-A5/GpH7-B3/GpL16-k0,"GpH7-A5/GpH7-B3 variant P331_14T/GpL16-k0 (antibody, human IgG1, kappa, copies: 1 + 1 + 2) heavy 1: not shown heavy 2: not shown light: DIVMTQSPLSLPVTPGEPASISCQASESLVHSNRNTYLHWYLQKPGQSPQLLIYKVSNRFSGVPDRFSGSGSGTDFTLKISRVEAEDVGVYYCSQNTHVPPTFGQGTKVEIERTVAAPSVFIFPPSDEQLKSGTASVVCLLNNFYPREAKVQWKVDNALQSGNSQESVTEQDSKDSTYSLSSTLTLSKADYEKHKVYACEVTHQGLSSPVTKSFNRGEC"
3,64.8 % of GpH7-A5/GpH7-B3/GpL16-k0,"GpH7-A5/GpH7-B3 variant P331_12R/GpL16-k0 (antibody, human IgG1, kappa, copies: 1 + 1 + 2) heavy 1: not shown heavy 2: not shown light: DIVMTQSPLSLPVTPGEPASISCQASESLVHSNRNTYLHWYLQKPGQSPQLLIYKVSNRFSGVPDRFSGSGSGTDFTLKISRVEAEDVGVYYCSQNTHVPPTFGQGTKVEIERTVAAPSVFIFPPSDEQLKSGTASVVCLLNNFYPREAKVQWKVDNALQSGNSQESVTEQDSKDSTYSLSSTLTLSKADYEKHKVYACEVTHQGLSSPVTKSFNRGEC"
4,111 % of GpH7-A5/GpH7-B3/GpL16-k0,"GpH7-A5/GpH7-B3 variant Q295_02A/GpL16-k0 (antibody, human IgG1, kappa, copies: 1 + 1 + 2) heavy 1: not shown heavy 2: not shown light: DIVMTQSPLSLPVTPGEPASISCQASESLVHSNRNTYLHWYLQKPGQSPQLLIYKVSNRFSGVPDRFSGSGSGTDFTLKISRVEAEDVGVYYCSQNTHVPPTFGQGTKVEIERTVAAPSVFIFPPSDEQLKSGTASVVCLLNNFYPREAKVQWKVDNALQSGNSQESVTEQDSKDSTYSLSSTLTLSKADYEKHKVYACEVTHQGLSSPVTKSFNRGEC"
5,73.9 % of GpH7-A5/GpH7-B3/GpL16-k0,"GpH7-A5/GpH7-B3 variant P331_19Q/GpL16-k0 (antibody, human IgG1, kappa, copies: 1 + 1 + 2) heavy 1: not shown heavy 2: not shown light: DIVMTQSPLSLPVTPGEPASISCQASESLVHSNRNTYLHWYLQKPGQSPQLLIYKVSNRFSGVPDRFSGSGSGTDFTLKISRVEAEDVGVYYCSQNTHVPPTFGQGTKVEIERTVAAPSVFIFPPSDEQLKSGTASVVCLLNNFYPREAKVQWKVDNALQSGNSQESVTEQDSKDSTYSLSSTLTLSKADYEKHKVYACEVTHQGLSSPVTKSFNRGEC"
6,73.4 % of GpH7-A5/GpH7-B3/GpL16-k0,"GpH7-A5/GpH7-B3 variant P331_16H/GpL16-k0 (antibody, human IgG1, kappa, copies: 1 + 1 + 2) heavy 1: not shown heavy 2: not shown light: DIVMTQSPLSLPVTPGEPASISCQASESLVHSNRNTYLHWYLQKPGQSPQLLIYKVSNRFSGVPDRFSGSGSGTDFTLKISRVEAEDVGVYYCSQNTHVPPTFGQGTKVEIERTVAAPSVFIFPPSDEQLKSGTASVVCLLNNFYPREAKVQWKVDNALQSGNSQESVTEQDSKDSTYSLSSTLTLSKADYEKHKVYACEVTHQGLSSPVTKSFNRGEC"
